Consider nine molecules from US20220396620A1 (Takeda / Millennium, published 2022).

Assay [1] deals with T1, human cannabinoid receptor type 1 (CB1) (human, UniProt P21554 1-472).
T1 construct: DiscoverX cAMP Hunter CHO-K1 CNR1 Gi cells for cAMP and pERK assays; also called huCB1; huCB-1
The assay is described as follows: flow cytometry, single point at 30 ug/mL antibody on CHO-huCB-1 cells. For orientation: In flow cytometry, cells or beads pass a laser one at a time.

Assay [2] concerns the target T1, human cannabinoid receptor type 1 (CB1). The assay is described as follows: FACS on CHO-huCB-1 cells, single concentration 30 ug/mL.
Assay [3] has the same target. The assay is described as follows: FACS, titration on CB1 over-expressing CHO cells. As for the experimental part: (§1) Antibody binding was tested in a fluorescence activated cell sorting (FACS)-based assay for the ability of the mouse anti-CB1 antibodies to bind parental CHO cells, human CB-1 overexpressing CHO cells and mouse CB-1 overexpressing CHO cells to obtain binding curves and EC50 values. The three cell lines were harvested, washed and dispensed at 1×10⁵ cells per well of a v-bottomed 96-well polycarbonate FACS plates (Corning, Corning, N.Y., Cat. No. 3357) in 50 μl of FACS buffer (1×PBS/2 mM EDTA and 1% FBS (ThermoFisher Scientific, Anaheim, Calif.; Cat. No. 10438-026). Serial dilutions of the antibodies were prepared at 2× concentrations starting at 200 nM and serially diluted 3-fold. The titrated antibodies were added to the plates containing the three different cell lines (parental, human and mouse CB-1 CHO cells) and incubated at 4° C. for 1 hour. The plates were washed 3× with FACS buffer. […] None of the eight functional antibodies tested were mouse cross reactive (FIG. 3).

Assay [4] shares this target. The assay is described as follows: cell-based or functional assay.
A further assay concerns the target T2, mouse CB-1 (mouse, UniProt P47746 1-473).
T2 construct: whole, on cells; also called moCB1; moCB1-CHO cells
The assay is described as follows: flow cytometry on CHO-Mouse CB1 cells, 3-fold antibody titration from 200 nM. As for the experimental part: as §1

T2 sequence (P47746 whole entry): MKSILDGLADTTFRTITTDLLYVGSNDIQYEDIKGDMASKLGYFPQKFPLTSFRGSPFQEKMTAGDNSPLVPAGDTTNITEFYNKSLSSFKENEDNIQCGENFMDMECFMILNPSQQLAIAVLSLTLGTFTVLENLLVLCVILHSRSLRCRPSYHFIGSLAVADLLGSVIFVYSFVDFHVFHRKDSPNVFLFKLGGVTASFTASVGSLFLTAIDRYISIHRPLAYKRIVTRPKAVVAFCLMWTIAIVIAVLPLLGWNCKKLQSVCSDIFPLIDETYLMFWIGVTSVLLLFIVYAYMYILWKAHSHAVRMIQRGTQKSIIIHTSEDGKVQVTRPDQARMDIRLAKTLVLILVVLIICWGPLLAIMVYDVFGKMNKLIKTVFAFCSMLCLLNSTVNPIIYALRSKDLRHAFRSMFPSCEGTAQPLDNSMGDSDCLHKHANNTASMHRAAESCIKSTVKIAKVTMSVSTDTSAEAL
T1 sequence (P21554 whole entry): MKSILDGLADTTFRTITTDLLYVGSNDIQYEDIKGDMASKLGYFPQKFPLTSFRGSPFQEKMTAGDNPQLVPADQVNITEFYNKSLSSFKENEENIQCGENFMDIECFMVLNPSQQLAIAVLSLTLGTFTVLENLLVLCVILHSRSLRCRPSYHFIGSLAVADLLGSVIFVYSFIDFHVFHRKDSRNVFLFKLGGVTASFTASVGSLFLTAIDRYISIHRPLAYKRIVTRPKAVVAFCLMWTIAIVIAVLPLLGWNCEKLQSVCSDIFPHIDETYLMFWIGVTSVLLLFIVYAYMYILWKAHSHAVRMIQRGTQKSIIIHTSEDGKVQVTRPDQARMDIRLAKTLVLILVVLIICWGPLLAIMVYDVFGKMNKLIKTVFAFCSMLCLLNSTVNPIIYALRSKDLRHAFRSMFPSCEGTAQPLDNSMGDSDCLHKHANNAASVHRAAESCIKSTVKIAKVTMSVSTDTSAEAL

B1: M7-H3 humanized anti-CB1 antibody (antibody, human IgG1, kappa, L234A L235A, V domains shown)
VH: QVQLVQSGAEVKKPGASVKVSCKASSYTFTRYWMNWVKQAPGQGLEWIGMIDPYDSETHYNQKFQGRATLTVDTSTSTVYMELSSLRSEDTAVYFCARSQPRYYAMDYWGQGTTVTVSS
VL: DIQMTQSPSSLSASLGDRVTLTCRASQEISGFLSWLQLKPGKTIKRLIYAASSLDSGVPSRFSGSWSGTDYTLTISSLQPEDFADYYCLQYSSYPYTFGGGTKLEIKR
With B1, the binding result in assay [1] is on record as “binds”.

B2: M7-H5 humanized anti-CB1 antibody (antibody, human IgG1, kappa, L234A L235A, V domains shown)
VH: QVQLVQSGAEVVKPGASVKLSCKASSYTFTRYWMNWVKQAPGQGLEWIGMIDPYDSETHYNQKFKDKAILTVDKSTSTAYMELSTLRSEDTAVYFCARSQPRYYAMDYWGQGTSVTVSS
VL: DIQMTQSPSSLSASLGDRVTLTCRASQEISGFLSWLQLRPDGTIKRLIYAASSLDSGVPSRFRGSWSGTDYTLTISSLQSEDFADYYCLQYSSYPYTFGGGTKLEIKR
On to B2, for which, in assay [2], the binding result was “binds”.

B3: M7-H6 humanized anti-CB1 antibody (antibody, human IgG1, kappa, V domains shown)
VH: QVQLVQSGAEVKKPGASVKVSCKASSYTFTRYWMNWVRQAPGQGLEWMGMIDPYDSETHYNQKFKDRVTMTRDTSTSTVYMELSSLRSEDTAVYYCARSQPRYYAMDYWGQGTSVTVSS
VL: DIQMTQSPSSLSASVGDRVTITCRASQEISGFLAWFQQKPGKAPKSLIYAASSLQSGVPSRFSGSGSGTDFTLTISSLQPEDFATYYCQQYSSYPYTFGGGTKLEIKR
Turning to B3, the binding result in assay [2] is listed as “binds”.

B4: M7-H2 humanized anti-CB1 antibody (antibody, human IgG1, kappa, L234A L235A)
heavy: not shown
light: DIQMTQSPSSLSASVGDRVTLTCRASQEISGFLSWLQLKPGKAIKRLIYAASSLDSGVPSRFSGSWSGTDYTLTISSLQPEDFADYYCLQYSSYPYTFGGGTKVEIKRTVAAPSVFIFPPSDEQLKSGTASVVCLLNNFYPREAKVQWKVDNALQSGNSQESVTEQDSKDSTYSLSSTLTLSKADYEKHKVYACEVTHQGLSSPVTKSFNRGEC
Turning to B4, the binding result in assay [1] is “binds”.

B5: M8 mouse anti-huCB-1 antibody (antibody, V domains shown)
VH: QVQLQQPGAELVKPGASVKLSCKASGYTFTDYWMHWVKQRPGHGLEWIGEIYPSSGRANYNGNFKRKATLTVDKSSSTAYMQLSSLTSEDSAVYYCARSRGNYLPYWGHGTPVTVSA
VL: QIVLTQSPAIMSASLGERVTMTCTAGSTVSSSYLHWYQQRPGSSPKLWIYGTSNLASGVPARFSGSGSGTSYSLTISSMEAEDAATYYCHQYHRSPPTFGGGTKLEIK
By EC50 is commonly meant the concentration that produces a half-maximal response. Low values mean a more potent agent, high ones a less potent agent. In turn, B5 displayed an EC50 in assay [3] of 10.7 nM. In assay [4], the “Mean P-ERK (% inhibition)” value worked out at 64 % inhibition, the “Mean cAMP (% Amgen)” value stood at 29 % Amgen, the “P-ERK IC50 (nM) Data Set 1” value amounted to 36 nM and the “P-ERK IC50 (nM) Data Set 2” value turned out to be 47 nM. Further, in assay [4], the “cAMP EC50 (nM) Data Set 1” value was 96 nM, the “cAMP EC50 (nM) Data Set 2” value is 190 nM and the “cAMP EC50 (nM) Data Set 3” value stood at 370 nM. Also, the binding result with mouse CB-1 is listed as “no binding (tested: 200 nM)”.

B6: M5 mouse anti-huCB-1 antibody (antibody, V domains shown)
VH: QVHLQQSGAELVRPGSSVKISCKASGYEFSYYWMNWVKQRPGQGHEWIGQIYPGDGDTNYNGKFKGKATLTADKSSSTAYMQLSSLTSEDSAVYFCARGREAAWFAYWGQGTLVTVSA
VL: DIVLAQSPASLAVSLGQRATISCRASQSVSSFRYSYLHWYQQKPGQPPRLLIKYASNLESGVPARFSGSGSGTDFTLNIHPVEEEDTATYFCQHSWEIPFTFGSGTKLEIKR
notes: The humanized M5-H1 and M5-H2 carry the CDRs of the un-numbered VL, so that one may be the functional light chain
Regarding B6, the EC50 in assay [3] was 20.2 nM. Also, in assay [4], the “Mean P-ERK (% inhibition)” value is 101 % inhibition, the “Mean cAMP (% Amgen)” value was 61 % Amgen, the “P-ERK IC50 (nM) Data Set 1” value is 191 nM and the “P-ERK IC50 (nM) Data Set 2” value was 50 nM. Also, in assay [4], the “cAMP EC50 (nM) Data Set 1” value amounted to 91 nM, the “cAMP EC50 (nM) Data Set 2” value stood at 170 nM and the “cAMP EC50 (nM) Data Set 3” value worked out at 170 nM. Further, the binding result with mouse CB-1 is on record as “no binding (tested: 200 nM)”.

B7: M5-H1 humanized anti-CB1 antibody (antibody, human IgG1, kappa, L234A L235A, V domains shown)
VH: QVQLVQSGAEVVKPGASVKISCKASGYEFSYYWMNWVKQAPGQGHEWIGQIYPGDGDTNYNGKFKGKATLTADKSTSTAYMELSSLRSEDTAVYFCARGREAAWFAYWGQGTLVTVSS
VL: DIQLTQSPSSLSVSVGDRATITCRASQSVSSFRYSYLHWYQQKPGKAPKLLIKYASNLESGVPSRFSGSGSGTDFTLTISSVQPEDFATYFCQHSWEIPFTFGQGTKLEIKR
Take B7: in assay [1], the binding result was “binds”.

B8: M5-H2 humanized anti-CB1 antibody (antibody, human IgG1, kappa, L234A L235A, V domains shown)
VH: QVQLVQSGAEVKKPGASVKVSCKASGYEFSYYWMNWVRQAPGQGHEWIGQIYPGDGDTNYNQKFQGRVTLTADTSTSTAYMELSSLRSEDTAVYFCARGREAAWFAYWGQGTLVTVSS
VL: DIQLTQSPSSLSVSVGDRATITCRASQSVSSFRYSYLHWYQQKPGKAPKLLIKYASNLESGVPSRFSGSGSGTDFTLTISSVQPEDFATYFCQHSWEIPFTFGQGTKLEIKR
For the molecule B8, the binding result in assay [1] was “binds”.

B9: M7 mouse anti-huCB-1 antibody (antibody, V domains shown)
VH: EVQLQQPGAELVRPGASVKLSCKASSYTFTRYWMNWVKQRPEEGLEWIGMIDPYDSETHYNQKFKDKAILTVDKSSSTAYMQLSTLTSEDSAVYFCARSQPRYYAMDYWGQGTSVTVSS
VL: DIQMSQSPSSLSASLGERVSLTCRASQEISGFLSWLQLRPDGTIKRLIYAASSLDSGVPKRFRGSWSGSDYSLTISSLESEDFADYYCLQYSSYPYTFGGGTKLEIK
Take B9: the concentration giving a half-maximal response (EC50) in assay [3] worked out at 13 nM. Moreover, in assay [4], the “Mean P-ERK (% inhibition)” value worked out at 95 % inhibition, the “Mean cAMP (% Amgen)” value stood at 61 % Amgen, the “P-ERK IC50 (nM) Data Set 1” value came out at 117 nM and the “P-ERK IC50 (nM) Data Set 2” value was found to be 170 nM. Further, in assay [4], the “cAMP EC50 (nM) Data Set 1” value came to 78 nM, the “cAMP EC50 (nM) Data Set 2” value was found to be 120 nM and the “cAMP EC50 (nM) Data Set 3” value turned out to be 120 nM. In addition, the binding result with mouse CB-1 was “no binding (tested: 200 nM)”.
